{"source": "paper PMC8800115", "about": "(2021)", "binders": {"B1": {"name": "ASCC2 CUE domain (construct of the ITC experiments of Figure 2) (domain or fragment)", "chain": "AAVGPAMCGVELDSLISQVKDLLPDLGEGFILACLEYYHYDPEQVINNILEERLAPTLSQLDRNLDREM"}}, "target": "K63-linked tetraubiquitin (UniProt P0CG48 1-76, G76 to K63 isopeptide bonds between adjacent ubiquitins)", "experiment": "ITC", "data": [{"binder": "B1", "values": [{"measurement": "Kd", "result": 2100, "unit": "nM"}]}]}
